Assay results reported in article PMC10840515.

Molecular target: HLA-DR1 (HLA-DRA*0101, HLA-DRB1*0101) (human)
Assay: ELISA

**Q.** “influenza A virus hemagglutinin (HA) peptide HA305-319” was tested. Which IC50 did it give?
**A.** The IC50 was 0.029 µM.
